T1: PUF4 RNA-binding domain (Saccharomyces cerevisiae, UniProt P25339 537-888)
T1 sequence: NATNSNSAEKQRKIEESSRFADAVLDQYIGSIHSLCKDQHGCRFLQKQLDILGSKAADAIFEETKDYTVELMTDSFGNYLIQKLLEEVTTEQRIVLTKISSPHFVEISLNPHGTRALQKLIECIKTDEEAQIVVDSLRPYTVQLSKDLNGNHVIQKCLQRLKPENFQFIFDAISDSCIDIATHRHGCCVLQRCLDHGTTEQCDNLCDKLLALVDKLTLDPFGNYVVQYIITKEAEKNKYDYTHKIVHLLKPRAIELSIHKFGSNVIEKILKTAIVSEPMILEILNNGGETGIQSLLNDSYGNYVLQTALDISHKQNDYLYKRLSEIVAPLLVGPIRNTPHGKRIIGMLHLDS


Molecular target: T1, PUF4 RNA-binding domain
Experiment: Mg; RNA-MaP; 20 mM Na-HEPES pH 7.4, 30 mM KOAc, 0.75 mM MgCl2, 0.1% Tween-20, 5% glycerol, 0.1 mg/mL BSA, 2 mM DTT; 25 C; 0.0125-409.6 nM protein
Details: tags: N-His6-TEV cleaved; C-SNAP kept, Cy3B-labelled; label: tethered on chip by stalled RNA polymerase

| Binder | Kd |
| --- | --- |
| UCUCUUUAUCUAUUAUCUCUU (ssRNA) [Ib_S1_P4E.1_K4.1_C4.1_H4.1_[G2A]_[A4C]_A4.1_F4.1_T4.1] | > 2300 nM |
| UCUCUUUUUGUAUAUAAUUCUCUU (ssRNA) [Id_ii_S1_P3E.2_K3.1_C3.2_[C-2T]_H3.1_A3.1_F3.1_T3.2_[T9A]_[A10T]] | 8.27 nM |
| UCUCUUAUUGUAUAUAAAUCUCUU (ssRNA) [Id_ii_S1_P3E.2_K3.1_C3.2_[C-2A]_H3.1_A3.1_F3.1_T3.2_[T9A]] | 13.9 nM |
| UCUCUUAGUGUAUAUAUCUCUCUU (ssRNA) [Id_ii_S1_P3E.2_K3.1_C3.2_[C-2A]_[T-1G]_H3.1_A3.1_F3.1_T3.2_[A10C]] | 13.4 nM |
| UCUCUUUUUGUAUAUAUCUCUCUU (ssRNA) [Id_ii_S1_P3E.2_K3.1_C3.2_[C-2T]_H3.1_A3.1_F3.1_T3.2_[A10C]] | 7.26 nM |
| UCUCUUAGUGUAUAUAGUUCUCUU (ssRNA) [Id_ii_S1_P3E.2_K3.1_C3.2_[C-2A]_[T-1G]_H3.1_A3.1_F3.1_T3.2_[T9G]_[A10T]] | 6.52 nM |
| UCUCUUACUGUAUAUAACUCUCUU (ssRNA) [Id_ii_S1_P3E.2_K3.1_C3.2_[C-2A]_[T-1C]_H3.1_A3.1_F3.1_T3.2_[T9A]_[A10C]] | 26.7 nM |
| UCUCUUAAUGUAUAUAAUUCUCUU (ssRNA) [Id_ii_S1_P3E.2_K3.1_C3.2_[C-2A]_[T-1A]_H3.1_A3.1_F3.1_T3.2_[T9A]_[A10T]] | 8.64 nM |
| UCUCUUAAUGUAUAUAAAUCUCUU (ssRNA) [Id_ii_S1_P3E.2_K3.1_C3.2_[C-2A]_[T-1A]_H3.1_A3.1_F3.1_T3.2_[T9A]] | 20.8 nM |
| UCUCUUACUGUAUAUACAUCUCUU (ssRNA) [Id_ii_S1_P3E.2_K3.1_C3.2_[C-2A]_[T-1C]_H3.1_A3.1_F3.1_T3.2_[T9C]] | 22.8 nM |
| UCUCUUAGUGUAUAUAUGUCUCUU (ssRNA) [Id_ii_S1_P3E.2_K3.1_C3.2_[C-2A]_[T-1G]_H3.1_A3.1_F3.1_T3.2_[A10G]] | 11 nM |
| UCUCUUCCUGUAUAUACGUCUCUU (ssRNA) [Id_ii_S1_P3E.2_K3.1_C3.2_[T-1C]_H3.1_A3.1_F3.1_T3.2_[T9C]_[A10G]] | 17.4 nM |
| UCUCUUCCUGUAUAUACUUCUCUU (ssRNA) [Id_ii_S1_P3E.2_K3.1_C3.2_[T-1C]_H3.1_A3.1_F3.1_T3.2_[T9C]_[A10T]] | 6.95 nM |
| UCUCUUAUUGUAUAUAAUUCUCUU (ssRNA) [Id_ii_S1_P3E.2_K3.1_C3.2_[C-2A]_H3.1_A3.1_F3.1_T3.2_[T9A]_[A10T]] | 12.2 nM |
| UCUCUUAUUGUAUAUACUUCUCUU (ssRNA) [Id_ii_S1_P3E.2_K3.1_C3.2_[C-2A]_H3.1_A3.1_F3.1_T3.2_[T9C]_[A10T]] | 10.3 nM |
| UCUCUUAUUGUAUAUAUUUCUCUU (ssRNA) [Id_ii_S1_P3E.2_K3.1_C3.2_[C-2A]_H3.1_A3.1_F3.1_T3.2_[A10T]] | 9.49 nM |

| Binder | Kd |
| --- | --- |
| UCUCUUAAUGUAUAUACCUCUCUU (ssRNA) [Id_ii_S1_P3E.2_K3.1_C3.2_[C-2A]_[T-1A]_H3.1_A3.1_F3.1_T3.2_[T9C]_[A10C]] | 16.5 nM |
| UCUCUUAUUGUAUAUACCUCUCUU (ssRNA) [Id_ii_S1_P3E.2_K3.1_C3.2_[C-2A]_H3.1_A3.1_F3.1_T3.2_[T9C]_[A10C]] | 17.6 nM |
| UCUCUUAAUGUAUAUAUUUCUCUU (ssRNA) [Id_ii_S1_P3E.2_K3.1_C3.2_[C-2A]_[T-1A]_H3.1_A3.1_F3.1_T3.2_[A10T]] | 13.4 nM |
| UCUCUUCGUGUAUAUAUUUCUCUU (ssRNA) [Id_ii_S1_P3E.2_K3.1_C3.2_[T-1G]_H3.1_A3.1_F3.1_T3.2_[A10T]] | 8.56 nM |
| UCUCUUAUUGUAUAUAUAUCUCUU (ssRNA) [Id_ii_S1_P3E.2_K3.1_C3.2_[C-2A]_H3.1_A3.1_F3.1_T3.2] | 4.87 nM |
| UCUCUUCGUGUAUAUAAUUCUCUU (ssRNA) [Id_ii_S1_P3E.2_K3.1_C3.2_[T-1G]_H3.1_A3.1_F3.1_T3.2_[T9A]_[A10T]] | 8.53 nM |
| UCUCUUUCUCUAUUAUCUCUU (ssRNA) [Ib_S1_P4E.1_K4.1_C4.1_H4.1_[G2C]_[A4C]_A4.1_F4.1_T4.1] | > 2300 nM |
| UCUCUUCCUGUAUAUAGUUCUCUU (ssRNA) [Id_ii_S1_P3E.2_K3.1_C3.2_[T-1C]_H3.1_A3.1_F3.1_T3.2_[T9G]_[A10T]] | 4.07 nM |
| UCUCUUAUUGUAUAUAUCUCUCUU (ssRNA) [Id_ii_S1_P3E.2_K3.1_C3.2_[C-2A]_H3.1_A3.1_F3.1_T3.2_[A10C]] | 8.52 nM |
| UCUCUUCGUGUAUAUACCUCUCUU (ssRNA) [Id_ii_S1_P3E.2_K3.1_C3.2_[T-1G]_H3.1_A3.1_F3.1_T3.2_[T9C]_[A10C]] | 17.5 nM |
| UCUCUUACUGUAUAUAAAUCUCUU (ssRNA) [Id_ii_S1_P3E.2_K3.1_C3.2_[C-2A]_[T-1C]_H3.1_A3.1_F3.1_T3.2_[T9A]] | 16.3 nM |
| UCUCUUUUUGUAUAUACUUCUCUU (ssRNA) [Id_ii_S1_P3E.2_K3.1_C3.2_[C-2T]_H3.1_A3.1_F3.1_T3.2_[T9C]_[A10T]] | 10.2 nM |
| UCUCUUUUUUUAUUAUCUCUU (ssRNA) [Ib_S1_P4E.1_K4.1_C4.1_H4.1_[G2T]_[A4T]_A4.1_F4.1_T4.1] | > 2300 nM |
| UCUCUUAAUGUAUAUAUCUCUCUU (ssRNA) [Id_ii_S1_P3E.2_K3.1_C3.2_[C-2A]_[T-1A]_H3.1_A3.1_F3.1_T3.2_[A10C]] | 10.4 nM |
| UCUCUUAGUGUAUAUAAAUCUCUU (ssRNA) [Id_ii_S1_P3E.2_K3.1_C3.2_[C-2A]_[T-1G]_H3.1_A3.1_F3.1_T3.2_[T9A]] | 14.1 nM |

From paper PMC9352680, “A comprehensive thermodynamic model for RNA binding by the Saccharomyces cerevisiae Pumilio protein PUF4”
